{
  "source": "patent US8507275B2",
  "about": "“Method of inducing differentiation of embryonic stem cells into hemangioblast” (Korea Advanced Institute of Science and Technology (Kaist), priority 2008, dated 2013)",
  "key": {"[1]": {"system": "human embryonic stem cells", "assay": "RT-PCR of mesoderm-specific marker genes in treated human embryonic stem cells", "format": "cell-based", "settings": "PD98059 20˜50 μM, BMP-4 10˜20 ng/ml; 3 days and 5 days; FIG. 2(A)", "protocol": "The human embryonic stem cells cultured in Example 1 were cultured for 3 days in a conditioned medium that contained the MEK1/2 inhibitors, PD98059 and BMP-4 at a concentration of 20˜50 μM and 10˜20 ng/ml, respectively. Then, in order to confirm the differentiation of human embryonic stem cells into mesodermal cells, expression of the mesoderm-specific marker genes was examined by RT-PCR. For analysis of gene expression, total RNA was isolated from cells, and cDNA was synthesized using reverse transcriptase, followed by PCR (polymerase-chain reaction) using primers specific to each gene.\nAs a control group, sample was cultured only in the conditioned medium for 5 days. As experimental groups, cells were cultured for 3 days and 5 days in culture media that were prepared by adding each of PD98059 and BMP-4 to the unconditioned medium at a concentration of 20˜50 μM and 10˜20 ng/ml, respectively. In addition, cells were simultaneously treated with PD98059 and BMP-4, and examined for 3 days and 5 days."}, "[2]": {"system": "CD34 positive cells (hESC-derived hemangioblasts)", "assay": "RT-PCR of vascular smooth muscle cell-specific markers in CD34 positive cells", "format": "cell-based, human", "settings": "EGM with PDGF-BB 50 ng/ml, about 5 days; FIG. 5(a)", "protocol": "In order to differentiate CD34 positive cells into vascular smooth muscle cells, CD34 positive cells were cultured for about 5 days in EGM (Endothelial cell Growth Medium, clonetics, USA) containing PDGF-BB at a concentration of 50 ng/ml. Expressions of the vascular smooth muscle cell-specific markers were examined by RT-PCR. For analysis of gene expression, total RNA was isolated from cells, and cDNA was synthesized using reverse transcriptase, followed by PCR (polymerase-chain reaction) using primers specific to each gene."}, "[3]": {"system": "hESC-derived vascular smooth muscle cells", "assay": "Immunofluorescent staining of vascular smooth muscle cell-specific markers", "format": "cell-based, human", "settings": "EGM with PDGF-BB; FIG. 5(b)", "protocol": "In order to confirm the differentiation into vascular smooth muscle cell at protein level, expressions of the vascular smooth muscle cell-specific markers were examined by immunofluorescent staining. In order to stain the hESC-derived vascular smooth muscle cells with the vascular smooth muscle cell-specific markers, α-smooth muscle actin (α-SMA) and calponin, the sample was first fixed in 4% paraformaldehyde at room temperature for 20 min, and then washed with a PBST solution (0.1% Tween-20 in PBS) for 5 min three times. To allow permeabilization of antibodies into the nucleus, a permeating solution (0.1% Triton X-100 in PBS) was added to culture plates, and left at room temperature for 15 min. After 15 min, the permeating solution was removed, and 4% NGS (Normal Goat Serum) was added for blocking at room temperature for 1 hr. […] Next day, in order to examine expressions of the markers (α-SMA, calponin) under a fluorescence microscope, secondary antibodies against the marker antibodies (Alexa 488-conjugated Goat anti-mouse IgG and Alexa 594-conjugated Goat anti-Rabbit poly) were added, and left at room temperature for 1 hr. After 1 hr, the culture plates were washed with a PBST solution for 10 min five times, and a fluorescence microscope was used to examine their expressions."}},
  "data": [
    {"molecule": "COc1cccc(-c2cc(=O)c3ccccc3o2)c1N", "note": "[PD98059, 2-(2-amino-3-methoxyphenyl)-4H-1-Benzopyran-4-one2-(2′-Amino-3′-methoxy)-flavone2-(2-amino-3-methoxyphenyl)-chromone, reference compound]", "values": [
      {"measurement": "Expressions of the mesoderm-specific markers BRACHYURY, GOOSECOID, TBX-4, TBX-5 and TBX-6 (RT-PCR)", "setting": "[1]", "value": "not observed"}
    ]},
    {"molecule": "BMP-4: bone morphogenetic protein, growth factor used to regulate differentiation of embryonic stem cells (protein, UniProt P12644 293-408, looked up) Bone morphogenetic protein 4: SPKHHSQRARKKNKNCRRHSLYVDFSDVGWNDWIVAPPGYQAFYCHGDCPFPLADHLNSTNHAIVQTLVNSVNSSIPKACCVPTELSAISMLYLDEYDKVVLKNYQEMVVEGCGCR", "values": [
      {"measurement": "Expressions of the mesoderm-specific markers BRACHYURY, GOOSECOID, TBX-4, TBX-5 and TBX-6 (RT-PCR)", "setting": "[1]", "value": "not observed"}
    ]},
    {"molecule": "PDGF-BB: Platelet-derived growth factor-BB (protein, UniProt P01127 82-190, looked up) Platelet-derived growth …: SLGSLTIAEPAMIAECKTRTEVFEISRRLIDRTNANFLVWPPCVEVQRCSGCCNNRNVQCRPTQVQLRPVQVRKIEIVRKKPIFKKATVTLEDHLACKCETVAAARPVT", "values": [
      {"measurement": "Expression of the vascular smooth muscle cell-specific markers SM22α, SM-MHC, PDGF-B receptor, α-SMA and calponin (RT-PCR)", "setting": "[2]", "value": "found to express"},
      {"measurement": "Expressions of the vascular smooth muscle cell-specific markers α-SMA and calponin at protein level (immunofluorescent staining)", "setting": "[3]", "value": "observed"}
    ]}
  ]
}
